From PMC9367177

Target: SARS-CoV-2 RBD (Wuhan-1), monomeric, His-Avitag (SARS-CoV-2, Wuhan-1) (UniProt P0DTC2)
Test: SPR

Substance: CC12.1 IgG (antibody)
- Kd: 6 nM
